This passage reports OD results from patent US20170298146A1 (MODIQUEST B V, published 2017).

What all share (assay): peptide ELISA, 0.08 ug/well
(In general: ELISA stands for enzyme-linked immunosorbent assay.)

Experiment [1] deals with T1, msFibα XH (mouse, X at position 15 is citrulline; biotin label).
T1 peptide: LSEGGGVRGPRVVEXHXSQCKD
The method, then: (§1) Biotin and citrulline-containing peptides derived from fibrinogen and vimentin were immobilized on NEUTRAVIDIN®-coated 96-well ELISA plates (0.3 μg/well). CFC-1 and CFC-0 were coated at the same concentration and served as positive and negative controls respectively for specific anti-citrulline reactivity and as coating controls. Non-coated wells were used to test for aspecific binding of the antibodies. […] Detection of bound anti-citrulline antibodies was performed by incubating the wells with rabbit-anti-human-HRP (1:2000) for one hour at RT followed by incubation with TMB substrate. The resulting OD (y-axis) is a measure for antibody binding.
(§2) Biotin-labeled and citrulline-containing fibrinogen and vimentin peptides (Table 5) were also tested for reactivity with the therapeutic antibodies. Peptides were coated on 96-well NEUTRAVIDIN®-ELISA plates.

The target in experiment [2] is T2, huFibα XH (human, X at position 15 is citrulline; biotin label).
T2 peptide: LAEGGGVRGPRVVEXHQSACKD
The method, then:
as §1, §2

Experiment [3] has as its target T3, huFibα XG (human, X at position 8 is citrulline; biotin label).
T3 peptide: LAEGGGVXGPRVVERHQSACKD
Here is the method: as §1, §2

The target of experiment [4] is T4, msFibβ XG (mouse, also: biotin label).
T4 peptide: EPTDSLDA[Cit]GHRPVDRR
The method, then:
as §1, §2

Non-standard residues stand in square brackets, D forms with d. No end group written: not given here. Cit = NC(=O)NCCC[C@H](N)C(=O)O

B1: RhmAb2.102 (antibody, human IgG1, lambda)
heavy: not shown
light: QSVLTQPPSMSAAPGQKVTISCSGSSSNIGNNYVSWYQQVPGTAPKLLIYDDNKRPSGIPGRFSGSKSATSATLGITGLQAGDEADYYCGSWDDNLSVVLFGGGTKLTVLGQPKAAPSVTLFPPSSEELQANKATLVCLISDFYPGAVTVAWKADSSPVKAGVETTTPSKQSNNKYAASSYLSLTPEQWKSHRSYSCQVTHEGSTVEKTVAPTECS
notes: Human IgG1 lambda; also called Rhm2.102
With B1, the OD in experiment [1] stood at 0.076 OD; in experiment [2], 0.08 OD; in experiment [3], 0.186 OD; in experiment [4], 0.515 OD.
